The record followed here is publication PMC4703215, “Structural Based Analyses of the JC Virus T-Antigen F258L Mutant Provides Evidence for DNA Dependent Conformational Changes in the C-Termini of Polyomavirus Origin Binding Domains”.

Data set [1] has as its target T1, JCV T-ag OBD wt (JC virus (JCV), UniProt P03072 132-261).
T1 sequence: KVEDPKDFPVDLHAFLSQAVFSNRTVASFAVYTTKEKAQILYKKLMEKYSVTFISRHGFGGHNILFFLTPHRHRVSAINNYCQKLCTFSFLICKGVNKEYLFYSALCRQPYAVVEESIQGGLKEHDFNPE
Briefly: fluorescence anisotropy; ITC: 10 mM Na phosphate pH 7.0, 50 mM NaCl, 5 mM DTT; anisotropy: 20 mM Hepes pH 7.4, 50 mM NaCl, 0.01% NP40, 0.1 mM DTT, 15 nM probe; temperature not stated. To be noted: protein: recombinant; tags: expressed from pGEX1λT (GST vector); label: 5' fluorescein (six-carbon linker) on one strand.

Data set [2] has as its target T1, JCV T-ag OBD wt. Briefly: ITC; ITC: 10 mM Na phosphate pH 7.0, 50 mM NaCl, 5 mM DTT; anisotropy: 20 mM Hepes pH 7.4, 50 mM NaCl, 0.01% NP40, 0.1 mM DTT, 15 nM probe; temperature not stated. To be noted: protein: recombinant; tags: expressed from pGEX1λT (GST vector).

B1: TBS probe, single GAGGC (dsDNA)
DNA 1: CCGAGGCCATTCTGAGAATTGAGC
DNA 2: GCTCAATTCTCAGAATGGCCTCGG
On to B1, for which the dissociation constant (Kd) with JCV T-ag OBD wt [1] worked out at 93 ± 21 nM.

B2: Site II duplex, four GAGGC pentanucleotides (dsDNA)
DNA 1: TACAGGAGGCCGAGGCCGCCTCCGCCTCCAAGC
DNA 2: GCTTGGAGGCGGAGGCGGCCTCGGCCTCCTGTA
On to B2, for which the dissociation constant Kd with JCV T-ag OBD wt [2] was 172 nM.
